# B1: HDV Ribozyme (parent)
# chain: GGCCGGCAUGGUCCCAGCCUCCUCGCUGGCGCCGGCUGGGCAACAUUCCGAGGGGACCGUCCCCUCGGUAAUGGCGAAUGGGACCCA
# Variants of: B1
# Experiment: self-cleavage, relative activity (ratio to wild type); higher = more cleavage; co-transcriptional
row,Variant,self-cleavage
1,A71G A77U,0.764
2,A71G A77G,0.88
3,C75A U79C,0.0707
4,U72A C85A,0.399
5,U72A C85U,0.764
6,U72A C85G,0.831
7,G73U C75G,0.086
8,U72C C84U,0.284
9,G73U A77G,0.306
10,G73U A77C,0.0898
11,G74U G76A,0.453
12,G73U G76U,0.212
13,G73C G81U,0.259
14,U72C G82C,0.26
15,U72C G82U,0.145
16,U72C G82A,0.248
17,G74C A83U,0.185
18,G74C A83C,0.295
19,G74U U79C,0.0963
20,G74A C84U,0.446
21,G74U A77G,0.312
22,G73U C84G,0.329
23,G73U C84A,0.158
24,A70G G73U,0.138

row,Variant,self-cleavage
1,A70G G73A,0.432
2,A70G C75A,0.201
3,G73C G74C,0.133
4,G74C G82U,0.179
5,A71U G82C,0.135
6,A71U G82U,0.248
7,G73C A83U,0.348
8,G73C A83C,0.264
9,G73C A83G,0.17
10,U72G C84G,0.214
11,U72G C84A,0.6
12,A71C A78U,0.147
13,G74U G82C,0.0723
14,G74U G82U,0.281
15,U72A A77C,0.199
16,U72G G81A,0.302
17,U72G G81U,0.178
18,U72C G80U,0.0791
19,A70G G76C,0.956
20,A70G G76U,0.997
21,A71C G82U,0.298
22,A71C G82A,0.111
23,C75A G80U,0.118
24,C75A G80A,0.12

row,Variant,self-cleavage
1,C75A G80C,0.18
2,G74C A78G,0.113
3,A71G A87G,1.06
4,A71G A87U,0.95
5,A71G C85U,0.962
6,A71G C85G,1.03
7,A71G C85A,0.674
8,U72A C86A,0.79
9,G73A G81A,0.176
10,A70U A77U,0.35
11,A70U A77G,0.665
12,A71U G76C,0.914
13,A71U G76A,0.932
14,G74U G80A,0.0845
15,G74U G80C,0.164
16,A71U C75U,0.218
17,G73C A78C,0.0773
18,G73C A78U,0.155
19,U72G A87C,0.709
20,U72G A87U,0.735
21,U72A G73U,0.612
22,U72A G73A,0.617
23,G73A G80C,0.165
24,G73A G80A,0.0652

row,Variant,self-cleavage
1,G73A G80U,0.153
2,A71U G81C,0.345
3,A71U G81U,0.185
4,G73C C86A,0.641
5,A71C A87G,0.993
6,A70U G76U,1.07
7,A71G G73A,0.689
8,G73U,0.382
9,G73C,0.505
10,G73A,0.691
11,G73A A87U,0.803
12,G73A A87G,0.697
13,G73C C75A,0.173
14,G73C C75G,0.0573
15,C75A A78U,0.0852
16,A71G U72G,0.516
17,G74U C85A,0.415
18,C75G A83U,0.201
19,C75G A83C,0.489
20,G73A G74A,0.248
21,G73A G74U,0.174
22,G73A G74C,0.176
23,A71C G74A,0.453
24,A71C G74C,0.128

row,Variant,self-cleavage
1,U72C A78C,0.229
2,U72A C84A,0.639
3,G74C A77C,0.133
4,U72G C86U,0.705
5,G74A A77C,0.231
6,A71C,0.84
7,A71U,0.93
8,A71G,0.957
9,A71C G73C,0.378
10,A71C G73U,0.141
11,U72A G74C,0.339
12,U72A G82C,0.208
13,U72G G76A,0.743
14,C75A C86G,0.0997
15,A70U G80C,0.213
16,A70U G80A,0.445
17,A71U A83G,0.677
18,A71U A83C,0.391
19,A71U G73A,0.432
20,G74U A87C,0.554
21,G74U A87G,0.473
22,A70U C86A,1.02
23,A70U C86G,0.872
24,A70U C86U,1.07

row,Variant,self-cleavage
1,A70U C85G,0.724
2,U72A G81C,0.0898
3,U72A G81U,0.166
4,U72A G81A,0.113
5,A70U C75U,0.219
6,A70U C75A,0.0898
7,A70U C75G,0.231
8,A70G U72C,0.54
9,A71U U72G,0.684
10,G74C C84A,0.177
11,G73A G82A,0.18
12,G73A G82U,0.151
13,G73C G82C,0.175
14,G73C G82A,0.175
15,G73C G82U,0.0707
16,U72A A87U,0.729
17,U72A A87G,0.452
18,U72A A87C,0.81
19,C75A A77C,0.237
20,C75A A77U,0.119
21,U72G G80A,0.185
22,U72G G74A,0.431
23,G74A A78G,0.111
24,G74A A78C,0.0811

row,Variant,self-cleavage
1,G73C G80U,0.141
2,U72C A87U,0.595
3,G73A A77C,0.161
4,A70G G81U,0.0978
5,A70G G81A,0.378
6,A70G C85G,0.831
7,A71U C85U,1.17
8,G74A U79G,0.356
9,A71U G80A,0.175
10,U72C A83G,0.318
11,G73C A87U,0.626
12,G74U A83C,0.271
13,G74U A83G,0.256
14,A71U C84A,0.862
15,A71U C84U,0.475
16,A71U C84G,0.481
17,U72C C85A,0.633
18,U72C C85G,0.453
19,G74C C85U,0.128
20,G74C C85A,0.217
21,G74C G76A,0.208
22,G74C G76C,0.185
23,G74C G76U,0.175
24,G74C G80C,0.183

row,Variant,self-cleavage
1,U72G C85U,0.644
2,G73A C85A,0.882
3,G73A C85U,0.73
4,U72C C75A,0.256
5,U72C C75U,0.192
6,U72A G80A,0.169
7,U72A G80C,0.219
8,U72G A77U,0.185
9,G74A G76C,0.464
10,A70U A83C,0.458
11,A70U A83U,0.237
12,C75A A87U,0.111
13,G74A C85A,0.657
14,A71G A78C,0.138
15,G73C A77U,0.151
16,G73C A77C,0.287
17,U72A A83U,0.166
18,U72A A83G,0.318
19,U72A A83C,0.219
20,A71C C84A,0.511
21,A71C C84U,0.604
22,G74A G81C,0.218
23,A71G G80U,0.196
24,G73U G74A,0.172

row,Variant,self-cleavage
1,A70U G73A,0.614
2,A70U G73U,0.169
3,G74C C86U,0.189
4,G74C C86A,0.201
5,G74C C86G,0.201
6,C75A C84G,0.0707
7,A71G C75A,0.158
8,A71G C75G,0.0755
9,G74C A87G,0.291
10,G74C A87C,0.212
11,G74U A78G,0.185
12,A71U A87C,0.913
13,A70U A78U,0.404
14,A70U A78G,0.7
15,A70U G81U,0.469
16,A70U G81C,0.193
17,A70U G81A,0.332
18,A70U C84U,0.627
19,G74A C86U,0.604
20,U72C U79C,0.277
21,U72C U79A,0.369
22,U72G C75U,0.0415
23,U72G C75G,0.262
24,U72G C75A,0.0665

row,Variant,self-cleavage
1,C75G C84A,0.259
2,G74C U79G,0.302
3,G74C U79C,0.181
4,G74C U79A,0.189
5,C75A G76C,0.166
6,G73A C86U,0.831
7,G73A C86G,0.609
8,A70U G74C,0.237
9,A70U G82U,0.567
10,A70U G82C,0.35
11,A70U G82A,0.469
12,A71G A83G,1.09
13,U72A G76C,0.65
14,U72A G76U,0.863
15,C75A G81A,0.151
16,G74C G81C,0.196
17,G74C G81A,0.0875
18,U72G A83U,0.166
19,U72G A83G,0.58
20,A71G G81C,0.131
21,A71G G81A,0.475
22,A71G U79A,0.997
23,A71G U79G,0.256
24,G73U A83C,0.17

row,Variant,self-cleavage
1,G74U G81A,0.211
2,G74U C84A,0.475
3,G73C C85A,0.231
4,U72A U79C,0.248
5,G73U C86U,0.448
6,G73U C86A,0.543
7,G73A G76U,0.906
8,A71C U79G,0.437
9,A71C U79A,0.529
10,A71C C75G,0.131
11,A71C C75A,0.0852
12,A71C C75U,0.199
13,U72C G81C,0.271
14,U72C G81A,0.356
15,A70G C86A,0.743
16,U72A A78U,0.161
17,U72A A78G,0.504
18,G73U G80A,0.0839
19,A71U C86G,0.752
20,A71U C86A,0.729
21,G73U A78U,0.119
22,G73U A78C,0.173
23,G73U A78G,0.332
24,A70G C84A,0.853

row,Variant,self-cleavage
1,C75G A87G,0.108
2,C75G A87U,0.143
3,A71C C86A,0.831
4,A71C C86U,0.665
5,G74A C75A,0.0528
6,G74A C75G,0.17
7,A70U U79C,0.277
8,A70U U79A,0.831
9,G73A A78C,0.265
10,A71C C85G,0.554
11,C75G A78G,0.222
12,C75G A78U,0.0462
13,C75G A78C,0.151
14,A71U U79C,0.314
15,A71U U79A,0.782
16,G74A G80U,0.124
17,G74A G80A,0.182
18,G74A G80C,0.167
19,G73A U79G,0.248
20,G73A U79C,0.186
21,G73A U79A,0.231
22,G73A C75A,0.246
23,G74U C75U,0.151
24,G73A A83U,0.323

row,Variant,self-cleavage
1,C75A G82A,0.151
2,G73U C85G,0.437
3,G73U C85A,0.397
4,U72G G73C,0.639
5,U72G G73U,0.554
6,G73C U79G,0.107
7,G73C U79C,0.161
8,A70G G82A,0.394
9,A70G G82C,0.259
10,A70U,0.953
11,C75A C85A,0.175
12,A71U G74C,0.244
13,A71G G76U,1.1
14,G73U G82C,0.157
15,G73U G82U,0.224
16,G73A C84U,0.665
17,G74C C75U,0.108
18,G74C C75A,0.252
19,A71U A78U,0.185
20,G74A A83C,0.232
21,G74A A83G,0.205
22,A71C G81A,0.309
23,A71C G81C,0.172
24,G73U G81C,0.115

row,Variant,self-cleavage
1,G73U G81A,0.178
2,C75A A83G,0.0567
3,C75A A83U,0.151
4,C75A A83C,0.181
5,A71C A83U,0.297
6,A71C A83C,0.229
7,A71C A83G,0.582
8,C75G,0.159
9,C75A,0.171
10,A71G C84G,0.465
11,A71G C84U,0.831
12,A70U A87G,1.02
13,A70U A87U,1.2
14,U72G A78U,0.356
15,U72C C86U,0.57
16,U72C C86A,0.712
17,U72G G82A,0.0978
18,U72C G73U,0.272
19,A71G C86G,1.01
20,G73C C84G,0.086
21,G73C C84A,0.277
22,G73C C84U,0.321
